According to patent publication US20250277790A1:

How the values were obtained:
[1] = target: human EGFR tagged with the fluorescent protein mTurquoise at the C-terminus (wild-type), in plasma membrane-derived vesicles from transfected CHO cells (human) (UniProt P00533); assay: cell-based or functional assay
[2] = target: L834R EGFR tagged with mTurquoise at the C-terminus, in plasma membrane-derived vesicles from transfected CHO cells (human) (UniProt P00533); assay: cell-based or functional assay

Epiregulin (1195EP025 CF, R&D Systems), sequence (O14944 63-108 limits assumed): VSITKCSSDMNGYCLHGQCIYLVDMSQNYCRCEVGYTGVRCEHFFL

| EC50 of Y1068 phosphorylation per EGFR molecule [1] | EC50 of Y1173 phosphorylation per EGFR molecule [1] | Etop of Y1068 phosphorylation per EGFR molecule [1] | Etop of Y1173 phosphorylation per EGFR molecule [1] | βlig (Y1068 vs Y1173), lig vs rho-mEGF [1] | EC50 of Y1068 phosphorylation per EGFR molecule [2] | EC50 of Y1173 phosphorylation per EGFR molecule [2] | Etop of Y1068 phosphorylation per EGFR molecule [2] | Etop of Y1173 phosphorylation per EGFR molecule [2] | Substance |
| --- | --- | --- | --- | --- | --- | --- | --- | --- | --- |
| 19.5 nM | 16.2 nM | 0.43 | 0.16 | -0.23 | 5.8 nM | 0.7 nM | 0.2 | 0.09 | Epiregulin (1195EP025 CF, R&D Systems) (from UniProt O14944 63-108) (ligand) |
| 3.4 nM | 5.2 nM | 0.59 | 0.17 | 0.13 | 3.2 nM | 0.3 nM | 0.17 | 0.12 | TGFα (239A100, R&D Systems) (from UniProt P01135 40-89) (ligand) |
